Entries after “also recorded” stand apart in the source; their conditions may differ. Ends that are not written are not given here.
Experiments:
[1] = biological target: T1, human PTH-1 receptor (Homo sapiens, UniProt Q03431); experiment: cAMP in LLC-PK1 cells stably transfected with the human PTH-1 receptor (LLC-B7 cells); format: cell-based; set-up: expressed in transfected cells
T1 sequence (Q03431 27-593): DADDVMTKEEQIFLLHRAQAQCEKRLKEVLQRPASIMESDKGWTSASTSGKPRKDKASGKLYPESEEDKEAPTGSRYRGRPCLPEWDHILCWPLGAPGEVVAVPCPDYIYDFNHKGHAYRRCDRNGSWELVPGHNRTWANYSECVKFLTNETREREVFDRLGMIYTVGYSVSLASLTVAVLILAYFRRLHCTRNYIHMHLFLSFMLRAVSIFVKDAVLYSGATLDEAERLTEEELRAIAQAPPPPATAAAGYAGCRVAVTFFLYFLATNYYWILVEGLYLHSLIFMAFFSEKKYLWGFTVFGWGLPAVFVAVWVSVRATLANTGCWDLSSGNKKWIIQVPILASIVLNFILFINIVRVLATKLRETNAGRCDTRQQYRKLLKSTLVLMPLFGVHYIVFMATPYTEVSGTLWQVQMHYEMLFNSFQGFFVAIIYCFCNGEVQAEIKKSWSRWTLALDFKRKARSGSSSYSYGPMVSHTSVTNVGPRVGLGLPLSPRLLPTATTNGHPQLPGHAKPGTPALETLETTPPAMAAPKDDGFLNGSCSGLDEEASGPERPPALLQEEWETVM
Experimental: FIG. 3. cAMP dose response curves of short amino-terminal PTH analogs in LLC-PK1 cells stably transfected with the human PTH-1 receptor (LLC-B7 cells). LLC-B7 cells in 24 plates were treated with the indicated peptides for 60 mins at 21° C., and then intracellular cAMP levels were measured. All PTH peptides shown are based on the rat PTH sequence and are carboxy-terminally amidated.
FIG. 7. cAMP activity of [Ile5]PTHrP(1-14). LLC-B7 cells were treated with the indicated peptide ligand, each at 100 μM, and then intracellular cAMP levels were measured.
Intracellular cAMP accumulation was measured as described previously (Abou-Samra et al., J. Biol. Chem. 262:1129, 1986). Cells in 24-well plates were rinsed with culture medium containing 0.1% BSA and 2 mM IBMX. The cells were then incubated with compounds of SEQ ID NO: 1 or derivatives thereof for 60 min. at 21° C. […] Intracellular cAMP was extracted by thawing the cells in 1 ml of 50 mM HCl and analyzed by a specific radioimmunoassay using an anti-cAMP antibody (e.g., Sigma, St. Louis, Mo.). […] The supernatant was removed and the bound radioactivity was counted in a gamma-counter (Micromedic). […]
The analysis extends to the PTHrP(1-14) sequence as well. […] LLC-B7 cells were treated with the indicated peptide ligand, each at 100 μM, and then intracellular cAMP levels were measured.

[2] = tested on: PTH; details: in vitro; cited from earlier work
[3] = tested on: the receptor; details: cited from earlier work
[4] = tested on: AC; details: cited from earlier work
[5] = biological target: T2, rat secretin receptor (rSR) (Rattus norvegicus, UniProt P23811); experiment: cAMP in COS-7 cells transfected with rat secretin receptor (specificity); format: cell-based; details: COS-7 cells transfected with rSR; FIG. 6
T2 construct: expressed in transfected cells; host or cells: COS-7
Experimental: FIG. 6. Specificity of PTH(1-14). […] Thus, the response to PTH(1-14) is dependent on the presence of the PTH-1 receptor.
(§1) PTH(1-14) specificity was also tested using the porcine renal cell line LLC-PK1, either untransfected or stably transfected with the human PTH-1 receptor, the LLC-B7 cell line.

[6] = biological target: T1, human PTH-1 receptor; experiment: cAMP accumulation in COS-7 cells expressing the cloned human PTH-1 receptor; format: cell-based; set-up: expressed in transfected cells; host or cells: COS-7; details: for stimulation of cAMP formation: COS-7 cells expressing cloned human PTH-1 receptor, peptides at 67 μM, 30 minutes at 21° C.
Experimental: FIG. 1. Bioactivity of amino-terminal and carboxy-terminal fragments of PTH(1-34). Fragments of parathyroid hormone were synthesized by chemical methods and purified by reverse-phase HPLC. Peptides were tested for the ability to stimulate cAMP accumulation in COS-7 cells expressing the cloned human PTH-1 receptor. PTH(1-34) was tested at a dose of 1 μM, other peptides were tested at 67 μM. Peptides were tested in duplicate (±s.e.m.) at a dose of 67 μM. The cAMP in control untreated cells is indicated by Bsl. Cells were treated for 30 minutes at 21° C.
FIG. 2. Alanine-scan of PTH(1-14). Shown are the bioactivities of 14 different PTH(1-14) derivatives, each having a different amino acid of the native sequence (shown at bottom of figure) (SEQ ID NO:14) replaced by alanine. Peptides were chemically synthesized, purified and tested for ability to stimulate cAMP formation in COS-7 cells expressing the cloned human PTH-1 receptor. Peptides were tested in duplicate (±s.e.m.) at a dose of 67 μM. As a control, untreated cells, indicated by basal, were measured. The PTH(1-14) containing alanine at position 1 was used as the wild-type reference. Cells were stimulated for 30 minutes at 21° C.
Intracellular cAMP accumulation was measured as described previously (Abou-Samra et al., J. Biol. Chem. 262:1129, 1986). Cells in 24-well plates were rinsed with culture medium containing 0.1% BSA and 2 mM IBMX. The cells were then incubated with compounds of SEQ ID NO: 1 or derivatives thereof for 60 min. at 21° C. The supernatant was removed and the cells immediately frozen by placing the whole plate in dry ice powder. Intracellular cAMP was extracted by thawing the cells in 1 ml of 50 mM HCl and analyzed by a specific radioimmunoassay using an anti-cAMP antibody (e.g., Sigma, St. Louis, Mo.). A cAMP analog (2′-O-monosuccinyl-adenosine 3′:5′-cyclic monophosphate tyrosyl methyl ester, obtained from Sigma) which was used a tracer for cAMP was iodinated by the chloramine T method. Free iodine was removed by adsorbing the iodinated cAMP analog onto a C18 Sep-pak cartridge (Waters, Milford, Mass.). After washing with dH20, the iodinated cAMP analog was eluted from the Sep-pak Cartridge with 40% acetonitrille (ACN) and 0.1% trifluoroacetic acid (TFA). The iodinated cAMP analog was lyophilized, reconstituted in 1 ml 0.1% TFA, and injected into a C18 reverse phase HPLC column (Waters). The column was equilibrated with 10% ACN in 0.1% TFA, and eluted with gradient of 10-30% ACN in 0.1% TFA. This allows separation of the mono-iodinated cAMP analog from the non-iodinated cAMP analog. The tracer is stable for up to 4 months when stored at −20° C. […] The supernatant was removed and the bound radioactivity was counted in a gamma-counter (Micromedic). […]

[7] = tested on: rat renal membranes; details: cited from earlier work
[8] = tested on: untransfected LLC-PK1 cells; experiment: cAMP dose response in LLC-B7 cells versus untransfected LLC-PK1 cells; format: cell-based, porcine; details: LLC-B7 cells vs untransfected LLC-PK1 cells; FIG. 4
Experimental: FIG. 4. cAMP dose response curves of PTH(1-14) in LLC-B7 cells and in untransfected LLC-PK1 cells. PTH(1-14) and PTH(1-34) control peptides were tested as in FIG. 3.
as §1

[9] = biological target: T3, rat PTH-1 receptor (Rattus norvegicus, UniProt P25961); details: CHO cells expressing cloned rat PTH-1 receptor; cited from earlier work
T3 sequence (P25961 27-591): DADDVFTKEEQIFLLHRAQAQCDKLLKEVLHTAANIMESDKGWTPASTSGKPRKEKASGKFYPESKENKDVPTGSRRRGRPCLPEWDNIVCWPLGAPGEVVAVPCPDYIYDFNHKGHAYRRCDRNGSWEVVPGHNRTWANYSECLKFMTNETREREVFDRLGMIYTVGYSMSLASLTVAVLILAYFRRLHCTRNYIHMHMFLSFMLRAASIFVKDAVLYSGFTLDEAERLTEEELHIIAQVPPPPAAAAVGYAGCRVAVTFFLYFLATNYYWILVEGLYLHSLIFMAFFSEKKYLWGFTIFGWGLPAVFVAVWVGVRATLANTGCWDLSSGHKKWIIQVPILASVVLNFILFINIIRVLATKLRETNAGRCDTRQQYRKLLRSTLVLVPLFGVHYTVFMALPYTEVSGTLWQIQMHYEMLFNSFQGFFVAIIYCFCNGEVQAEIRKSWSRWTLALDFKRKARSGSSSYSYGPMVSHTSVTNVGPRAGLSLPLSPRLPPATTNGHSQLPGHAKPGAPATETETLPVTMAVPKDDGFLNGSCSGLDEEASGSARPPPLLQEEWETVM

T2 sequence (P23811 26-449): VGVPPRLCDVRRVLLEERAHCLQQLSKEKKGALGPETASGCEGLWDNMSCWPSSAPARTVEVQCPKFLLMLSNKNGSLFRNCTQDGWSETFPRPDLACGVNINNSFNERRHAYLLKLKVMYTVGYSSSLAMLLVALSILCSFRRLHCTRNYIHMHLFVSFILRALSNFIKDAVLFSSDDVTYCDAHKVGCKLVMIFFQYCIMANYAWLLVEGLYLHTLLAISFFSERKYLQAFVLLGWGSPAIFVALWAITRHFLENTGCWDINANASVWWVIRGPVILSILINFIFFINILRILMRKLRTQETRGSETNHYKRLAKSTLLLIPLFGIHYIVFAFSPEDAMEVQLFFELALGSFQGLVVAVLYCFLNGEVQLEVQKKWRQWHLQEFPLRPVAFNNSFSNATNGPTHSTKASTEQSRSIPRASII

PTH(1-13): PTH variant truncated by one amino acid at the C-terminus, residues 1-13; rat PTH sequence (AVSEIQLMHNLGK)
cAMP dose response activity ([1]; 60 mins at 21° C., rat PTH sequence, carboxy-terminally amidated, FIG. 3): only very weak activity

PTH(3-34): synthetic analog of bovine PTH (SEIQFMHNLGKHLSSMERVEWLRKKLQDVHNF; Parathyroid hormone; UniProt P01268 34-65, looked up, fragment)
PTH antagonist activity [2]: potent PTH antagonist in vitro

PTH(15-34): PTH(15-34) fragment
receptor binding [3]: binds weakly | activation of AC [4]: does not activate AC

secretin (1-27): control native secretin (1-27) [reference compound]
stimulation of cAMP in cells expressing rat secretin receptor [5]: responds fully

AVSEIQLMH [[Ala^1] PTH(1-9)]
stimulation of cAMP formation ([6]; FIG. 1): small cAMP response; also recorded: exhibits some biological activity

bPTH(1-12): short NH2-terminal PTH peptide investigated previously (AVSEIQFMHNLG; Parathyroid hormone; UniProt P01268 32-43, looked up, fragment)
adenylyl cyclase activity [7]: inactive

PTH(1-14): 1-14 fragment of PTH; peptides in FIG. 3 are based on the rat PTH sequence (alanine at position 1) (SVSEIQLMHNLGKH)
stimulation of cAMP in cells expressing rat secretin receptor [5]: inactive; also recorded: does not stimulate cAMP | dependence of cAMP response on PTH-1 receptor [8]: dependent on PTH-1 receptor expression; also recorded: completely dependent on the presence of the PTH-1 receptor

PTH(15-31): carboxy-terminal fragment of PTH(1-34) (LNSMERVEWLRKKLQDV; Parathyroid hormone; UniProt P01270 46-62, looked up, fragment) [reference compound]
stimulation of cAMP formation ([6]; FIG. 1): inactive

PTHrP(1-16): short NH2-terminal PTHrP peptide investigated previously (AVSEHQLLHDKGKSIQ; Parathyroid hormone-related protein; UniProt P12272 37-52, looked up, fragment)
AC activity [9]: inactive

AVSEIQLLHDKGKS [[Ile^5] PTHrP(1-14)]
cAMP activity, potency relative to native PTHrP(1-14) ([1]; each peptide at 100 μM, FIG. 7): enhanced potency, relative to native PTHrP(1-14)

AlaValSerGluIleGlnLeuMetHisAsnLeuGlyLysHis (AVSEIQLMHNLGKH-NH2) [[Ala^1] PTH(1-14)]
activity relative to native PTH(1-34) ([6]; FIG. 1, PTH(1-34) at 1 μM, other peptides at 67 μM): weaker than native PTH(1-34) | bioactivity relative to native PTH(1-14) ([6]; Ser1 to Ala substitution, compared with native PTH(1-14) peptide): measurable increase in bioactivity over the background level of bioactivity of the native PTH(1-14) peptide
